# Assay results taken from paper PMC3962391, “Cation Diffusion Facilitators Transport Initiation and Regulation Is Mediated by Cation Induced Conformational Changes of the Cytoplasmic Domain” (PLoS ONE, 2014).
# Residue numbers refer to the chain shown, from its start. In names and notes the source's numbering stands.
# B1: C-terminal truncation MamM-CTD mutant (residues 215-293) (domain or fragment, Magnetospirillum gryphiswaldense MSR-1, UniProt V6F235 215-293, looked up)
# chain: EAVQNRIVEAAERVPGVRGVIHLRARYVGQDIWADMIIGVDPENTVEQAHEICEAVQAAVCGKIRRIESLHVSAEAREI
# notes: MamM, Magnetospirillum gryphiswaldense MSR-1; source: purified
# B2: MamM-CTD (residues 215-318) (domain or fragment, Magnetospirillum gryphiswaldense MSR-1, UniProt V6F235 215-318, looked up)
# chain: EAVQNRIVEAAERVPGVRGVIHLRARYVGQDIWADMIIGVDPENTVEQAHEICEAVQAAVCGKIRRIESLHVSAEAREIGDTTKPSFSDQPLSFDEVMLSKVDN
# notes: MamM, cation diffusion facilitator of the magnetosome membrane, Magnetospirillum gryphiswaldense MSR-1; Uniformly 13C,15N labelled for the solid-state NMR; also called apo-MamM-CTD; source: purified
# B3: MamM-CTD V260P (domain or fragment, Magnetospirillum gryphiswaldense MSR-1, UniProt V6F235 215-318, looked up)
# chain: B2 chain with V46P
# notes: MamM, Magnetospirillum gryphiswaldense MSR-1; also called V260P MamM-CTD mutant; recombinant MamM-CTD V260P; source: recombinant
# Biological target: the molecule itself
# Assay: SEC; Superdex200; apo proteins; elution volume against a calibration curve of marker proteins
row,Protein,stoichiometry N
1,B1,2
2,B2,2
3,B3,2
